The results in this text go back to patent US20130028978A1, “COMPOSITIONS AND METHODS FOR WOUND TREATMENT” (The Trustees of Columbia University in the City of New York, priority 2009, published 2013).

Assay [1] deals with MSCs or MSC-derived fibroblasts (MSC-Fb). Briefly: Myofibroblastic differentiation: αSMA expression by immunofluorescence and flow cytometry. Type of assay: cell-based, human. The procedure:
MSC-derived fibroblasts were subjected to 5 ng/mL recombinant human TGFβ1 (R&D Systems, Minneapolis, Minn.) for 7 days. Undifferentiated hMSCs were treated with TGFβ1 as control. The expression of αSMA (Abcam, Cambridge, Mass.) was evaluated by immunofluorescence with rhodamine-phalloidin (Invitrogen, Carlsbad, Calif.). The number of αSMA+ cells was quantified by flow cytometry.
Briefly, cells were trypsinized, counted, resuspended into 1×10^6 cells/tube and fixed in […] formaldehyde. Following washing in 0.1% triton, the cells were incubated with αSMA primary antibody (Abcam, Cambridge, Mass.) for 30 min. Following centrifugation at 400 g for 5 min, the cells were incubated with fluorochrome-labeled secondary antibody (Abcam, Cambridge, Mass.) for 30 min in the dark, and resuspended in PBS supplemented with 3% BSA and 1% sodium azide. The samples were then analyzed using a multifunctional cell sorter (FACSAria™ II; BD Biosciences, San Jose, Calif.).
Background: A flow cytometer gives signals particle by particle.

Assay [2] relates to MSCs in collagen type I gel. Briefly: Collagen gel contraction assay. Type of assay: cell-based, human. The note with it: cell-populated collagen lattices, up to 7 days. The procedure: Neutralized collagen type I (2 mg/mL) (R&D Systems, Minneapolis, Minn.) was mixed thoroughly with 1×10^6/mL MSCs, MSC-Fb or αSMA+ cells. Cell-populated collagen solution was cast in 24-well plates for 1 hr at 37° C. to induce gelation. Upon 48-hr incubation, cell-populated collagen lattices were physically detached and allowed to float freely in medium. Up to the tested 7 days, the diameters of cell-populated collagen lattices were measured on digital images.

A further assay has as its system keloid cell. Briefly: Keloid cell matrix synthesis. In kind it is cell-based. The settings on record: 0, 50, 100, 200, 500 ng/ml.
Assay [3] deals with Human mesenchymal stem cells (hMSCs). Briefly: CCN2/CTGF fibroblastic differentiation of hMSCs: collagen deposition (Trichrome staining), collagen type I and tenascin-C ELISA. In kind it is cell-based. From the text: Human mesenchymal stem cells (hMSCs) were isolated from fresh whole bone marrow samples of two anonymous adult donors (age range: 20-25 yrs old) (AllCells, Berkeley, Calif.). Mononucleated and adherent cells were purified by centrifugation through a density gradient (Ficoll-Paque) per our prior methods (30) and using negative selection following manufacturer's protocols (RosetteSep, StemCell Technologies, Vancouver, Canada) to remove hematopoietic cells and other differentiated cells.
Briefly, bone marrow was transferred to a 50 mL tube, followed by addition of […] of RosetteSep and incubation for 20 min. Then 15 mL PBS in 2% fetal bovine serum (FBS) and 1 mM ethylenediaminetetraacetic acid (EDTA) were added to a total volume of ˜30 mL. The sample was layered on 15 mL Ficoll-Paque and centrifuged 25 min at 3000×g. The entire layer of enriched cells was removed from Ficoll-Paque interface. The cocktail was centrifuged at 1000 rpm for 10 min. Collected cells were counted using trypan blue, plated at 0.5-1 million cells per 100 mm dish and allowed to attach for about 5 days, followed by regular medium change every two days. At 80-90% confluence, cells were trypsinized, centrifuged, resuspended in growth medium as passage 1 (P1) cells, and incubated in 5% CO2 at 37° C., with fresh medium changes every 3-4 days. Growth medium was defined as Dulbecco's Modified Eagle's Medium-Low Glucose (DMEM-LG; Sigma, St. Louis, Mo.), 1% antibiotic (1× Antibiotic-Antimycotic, including […] Penicillin G sodium, 10 mg/mL Streptomycin sulfate and 0.25 μg/mL amphotericine B) (Gibco, Invitrogen, Carlsbad, Calif.) and 10% Fetal Bovine Serum (FBS; Atlanta Biologicals, Norcross, Ga.).
P3 or P4 hMSCs were culture-expanded in monolayer (˜5,000 cells/well) in 12-well plates. At 80-90% confluence, hMSCs were culture-supplemented with 0, 10, 50 or 100 ng/mL recombinant human connective tissue growth factor (CTGF) (BioVendor, Candler, N.C.) and 50 μg/mL ascorbic acid (Sigma), with conditioned medium change every third day. […] Accordingly, 100 ng/mL CCN2/CTGF was selected for fibroblastic differentiation for in vitro experiments.
(§1) Two to four weeks following CCN2/CTGF treatment, collagen type I and tenascin-C (Tn-C) were assayed by ELISA using commercial kits (Chondrex, Redmond, Wash. and IBL-America, Minneapolis, Minn.). Collagen type I matrix was lysed using 0.5 M acetic acid. Collagen deposition was visualized using Trichrome staining. Total RNA was isolated using Trizol from CCN2/CTGF-treated hMSCs. Following lysing with Trizol, samples were incubated for 5 min at RT. A total of 0.2 mL chloroform per mL Trizol was added, and followed by mixing and incubation for 3 min. After centrifugation at 12,000×g and 4° C. for 15 min, the upper phase was transferred into a new tube with 500 μL isopropanol added. After 10 min incubation and another centrifugation for 10 min at 12,000×g, the supernatant was discarded. The pellet was washed with 1 mL 75% ethanol and dried for 5-10 min. RNA samples were eluted in 50 μL DEPC-water, assessed for concentration and purity at 260 and 280 nm, and stored at −80° C. prior to reverse transcription. All RNA samples were reverse transcribed using a kit (Applied Biosystems, Foster City, Calif.). For mRNA quantification, real-time quantitative PCR reactions with the cDNA samples were performed using 7300 Real Time PCR System TaqMan® gene expression assays (Applied Biosystems, Foster City, Calif.). Commercially available primers and probes for human collagen types I and III, Tn-C, fibronectin (FN), matrix metallopeptidase-1 (MMP-1), fibroblastic specific protein 1 (FSP1), and vimentin were used (49, 50). Collagen type II (Col-II) and osteocalcin (OC) were selected as chondrogenic and osteogenic differentiation markers, respectively. CD29, CD44, CD105, CD106, CD117, BMPR, and sca1 were selected as MSC markers (30, 31). GAPDH was used as housekeeping gene.

Assay [4] has the same test system. Briefly: Real-time quantitative PCR of MSC, fibroblastic, osteogenic, chondrogenic and myofibroblastic markers in CCN2/CTGF-treated hMSCs. In kind it is cell-based. As for the experimental part:
as §1

Assay [5] relates to CCN2/CTGF-treated MSCs (MSC-Fb). Briefly: Osteogenic, chondrogenic and adipogenic differentiation of CCN2/CTGF-treated MSCs (von Kossa, Alizarin Red, Safranin O, Oil-Red O). Type of assay: cell-based, human. As for the experimental part: Chondrogenic medium was supplemented with 10 ng/mL transforming growth factor β3 (TGFβ3) (R&D Systems, Minneapolis, Minn.), whereas osteogenic medium was supplemented with 100 nM dexamethasone, 10 mM β-glycerophosphate, and 0.05 mM ascorbic acid-2-phosphate (Sigma) per our prior methods (31, 51). At Days 14 and 28, von Kossa staining and calcium assay was performed to evaluate osteogenic differentiation, whereas safranin O (Saf-O) straining and glycosaminoglycan (GAG) assays were performed to evaluate chondrogenic differentiation (Blyscan™, Biocolor, UK).
Osteogenic and chondrogenic medium were prepared as described above. Adipogenic medium contained […], 0.5 mM isobutylmethylxanthine, and […] per our prior methods (31, 52, 53). In 4 wks, Alizarin Red, Saf-O, and Oil-Red O staining were performed.

Assay [6] relates to calvarial suture explants. Briefly: Ex vivo modulation of calvarial morphogenesis in organ culture. More on the design: species or system Sprague-Dawley rats. The procedure:
Calvarial explants, including frontal and parietal bones with intervening interfrontal, coronal and sagittal sutures were harvested with intact dura mater from p10 male Sprague-Dawley rats (Harlan, Indianapolis, Ind.). Isolated calvaria were placed in 12-well tissue culture plates with serum-free medium supplemented with 0 or 50 ng/mL recombinant human CCN2/CTGF (35), with medium change every 2 days. The CCN2/CTGF concentration was determined (data not shown). Five to 25 days following CCN2/CTGF treatment, Tn-C contents in supernatant were assayed using ELISA. Explant-cultured calvarial sutures were sectioned sagittally for H&E staining and immunohistochemistry. Calvarial sutures were scanned with pCT (vivaCT 40; Scanco, Southeastern, Pa.) to measure suture width.

Assay [7] deals with calvarial suture mesenchymal cells. Briefly: Fibroblastic differentiation of calvarial suture mesenchymal cells. Type of assay: cell-based, rat. The settings on record: 100 ng/mL, cells from p7 patent calvarial sutures. The procedure:
To isolate calvarial mesenchymal cells, the posterior interfrontal suture excluding calvarial bones was carefully dissected from p7 rat calvaria using surgical scissors. The overlying periosteum and the underlying dura mater were removed under dissection microscope. The isolated suture mesenchyme was lysed using 2 mg/mL collagenase for 1 hr at 37° C., and filtered with a tissue strainer (Fisher, Pittsburgh, Pa.). After centrifugation, the collected cells were counted using trypan blue, plated at 20,000-30,000 cells per 6-well plate, and allowed to attach for about 5 days, followed by medium change every 2-3 days until confluence. P1 or P2 calvarial cells were induced for osteogenic, chondrogenic, adipogenic, and fibroblastic differentiations for 4 wks as described below.

Setting [8] is: 2 and 4 wks, vs MSCs without CCN2/CTGF.
Where [9] appears, read: 2 and 4 wks of CCN2/CTGF treatment.

“Also recorded” adds a separate entry of the source.

Turning to “TGFβ1: recombinant human TGFβ1 (R&D Systems), a known stimulant for myofibroblast phenotype”, the “αSMA expression (immunofluorescence)” value in assay [1] (5 ng/mL TGFβ1 on CCN2/CTGF-treated MSCs / MSC-derived fibroblastic cells) is “readily expressed αSMA+ microfilaments”. The “cells that gained αSMA phenotype (flow cytometry)” value is given as 31.9% in assay [1] (TGFβ1 stimulation of CCN2/CTGF-treated MSCs (MSC-Fb)) and 1.8% in assay [1] (TGFβ1 stimulation of undifferentiated MSCs without prior CCN2/CTGF treatment). Further, the “contraction of collagen gel” value in assay [2] is recorded as “moderate contraction”.

Regarding `COC(=O)[C@@]1(O)C[C@H]2O[C@]1(C)n1c3ccccc3c3c4c(c5c6ccccc6n2c5c31)C(=O)NC4` [K252A], in the assay with keloid cell, the “keloid cell matrix synthesis” value is “inhibits keloid cell matrix synthesis”.

B1: CCN2/CTGF: recombinant human connective tissue growth factor (BioVendor); 36-38 kDa cysteine-rich protein of the CCN family; SEQ ID NO: 1 (protein, listed as Homo sapiens)
chain: MTAASMGPVRVAFVVLLALCSRPAVGQNCSGPCRCPDEPAPRCPAGVSLVLDGCGCCRVCAKQLGELCTERDPCDPHKGLFCDFGSPANRKIGVCTAKDGAPCIFGGTVYRSGESFQSSCKYQCTCLDGAVGCMPLCSMDVRLPSPDCPFPRRVKLPGKCCEEWVCDEPKDQTVVGPALAAYRLEDTFGPDPTMIRANCLVQTTEWSACSKTCGMGISTRVTNDNASCRLEKQSRLCMVRPCEADLEENIKKGKKCIRTPKISKPIKFELSGCTSMKTYRAKFCGVCTDGRCCTPHRTTTLPVEFKCPDGEVMKKNMMFIKTCACHYNCPGDNDIFESLYYRKMYGDMA
B1: the “collagen deposition with dose (Goldner's Trichrome staining)” value in assay [3] (0, 10, 50 or 100 ng/mL, 4 wks) was “increased with increasing CCN2/CTGF doses”. The collagen synthesis result in assay [3] (10 ng/mL) was “sufficient to stimulate collagen synthesis”. For the same molecule, the collagen synthesis entry in assay [3] (50 ng/mL and 100 ng/mL, compared with 10 ng/mL) is on record as “apparently more potent”. Further, the “collagen synthesis (Trichrome staining)” value in assay [3] (100 ng/mL, 4 wks, vs MSCs without CCN2/CTGF) is listed as “induced remarkable collagen synthesis; also recorded: prompted substantial collagen synthesis”. Besides, in assay [3] (setting [8]), the “collagen type I content (ELISA)” value is on record as “significantly greater; also recorded: significantly higher” and the “tenascin-C content (ELISA)” value was “significantly greater; also recorded: significantly higher”. In assay [4] (setting [9]), the “MSC stemness markers (CD29, CD44, CD105, CD106, CD117, BMPR, Sca1)” value is reported as “steady decreases; also recorded: gradually attenuated”; the “fibroblastic mRNA markers (collagen types I and III, Tn-C, fibronectin, MMP-1, FSP1, vimentin)” value is listed as “concomitant increases; also recorded: gradually increased”. Besides, in assay [4] (CCN2/CTGF-treated MSCs), the “chondrogenic marker collagen type II expression” value is “undetectable”, the “myofibroblastic marker αSMA expression (RT-PCR)” value is “αSMA negative; also recorded: undetectable” and the “osteogenic marker osteopontin expression” value is recorded as “undetectable; also recorded: minimally expressed”. Also, in assay [5] (CCN2/CTGF-treated MSCs), the “Safranin O staining” value is on record as “negative” and the “Von Kossa staining” value is recorded as “negative”. For the same molecule, in assay [5] (after 4 wk CCN2/CTGF stimulation (100 ng/mL), vs CCN2/CTGF-free MSCs), the “ability to differentiate into osteogenic, chondrogenic and adipogenic cells” value is given as “diminished ability to differentiate; also recorded: minimal capacity to further differentiate”. The “αSMA expression (flow cytometry)” value in assay [1] (CCN2/CTGF-treated MSCs (MSC-Fb), no TGFβ1) is “general absence of αSMA; also recorded: absence of αSMA expression”. Besides, in assay [1] (CCN2/CTGF-treated MSCs, no TGFβ1), the “αSMA expression (immunofluorescence)” value is listed as “did not express αSMA; also recorded: minimal”. Further, the “contraction of collagen gel” value in assay [2] is given as “moderate contraction”. Further, the “rescue of calvarial suture from ectopic mineralization” value in assay [6] (50 ng/mL to p10 explant for 25 days) is on record as “rescued the calvarial suture from undergoing ectopic mineralization”. In assay [6] (100 ng/mL, ex vivo culture to p35), the “rescue of calvarial suture from synostosis” value is recorded as “rescued calvarial suture from undergoing synostosis”. In addition, the “FSP1 and vimentin expression in calvarial suture” value in assay [6] (ex vivo CCN2/CTGF-treated suture) is “expressed”. The “suture width (μCT)” value in assay [6] (p35, vs without CCN2/CTGF) is reported as “significantly greater; also recorded: significantly wider”. Besides, the “Tn-C (tenascin C) content of sutures” value in assay [6] (vs CCN2/CTGF-free sutures) is listed as “significantly greater; also recorded: significantly more”. Besides, in assay [7], the “differentiation into fibroblast-like cells (Trichrome)” value is “readily differentiated into fibroblast-like cells that are highly Trichrome positive”.
